Reference: patent publication US20090018059

Assays:
OCT4 (Homo sapiens) = settings: ChIP-qPCR, human HUES-6 ESCs
SOX2 (Homo sapiens) = settings: ChIP-qPCR, human HUES-6 ESCs
[1] = target: Oct4 (Pou5f1) (Mus musculus) (UniProt P20263); settings: ChIP-qPCR, undifferentiated mouse ESCs; 10-fold maximum after 3 days RA, none at 6 days
Sox2 (Mus musculus) = Sox2 (Mus musculus) (UniProt P48432); settings: ChIP-qPCR, undifferentiated mouse ESCs; 10-fold maximum after 3 days RA, none at 6 days
Chain of Sox2 (Mus musculus) (P48432 whole entry): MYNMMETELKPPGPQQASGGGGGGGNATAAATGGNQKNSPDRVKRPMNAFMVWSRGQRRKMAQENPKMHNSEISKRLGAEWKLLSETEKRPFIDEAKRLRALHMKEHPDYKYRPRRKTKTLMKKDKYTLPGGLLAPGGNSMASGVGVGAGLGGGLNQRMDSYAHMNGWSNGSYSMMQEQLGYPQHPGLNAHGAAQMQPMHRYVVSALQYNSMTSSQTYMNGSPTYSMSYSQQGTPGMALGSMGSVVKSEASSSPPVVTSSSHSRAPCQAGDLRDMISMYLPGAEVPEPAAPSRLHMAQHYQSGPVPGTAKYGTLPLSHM

Chain of Oct4 (Pou5f1) (Mus musculus) (P20263 whole entry): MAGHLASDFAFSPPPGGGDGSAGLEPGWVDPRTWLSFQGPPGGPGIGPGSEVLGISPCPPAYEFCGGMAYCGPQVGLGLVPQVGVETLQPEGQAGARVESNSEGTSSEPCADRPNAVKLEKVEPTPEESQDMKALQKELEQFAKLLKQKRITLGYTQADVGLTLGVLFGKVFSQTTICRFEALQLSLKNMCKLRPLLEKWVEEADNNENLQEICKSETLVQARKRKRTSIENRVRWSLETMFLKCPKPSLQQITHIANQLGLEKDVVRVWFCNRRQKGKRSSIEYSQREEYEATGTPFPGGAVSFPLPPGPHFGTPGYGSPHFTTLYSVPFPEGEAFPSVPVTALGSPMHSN

Substance | binding signal (fold enrichment) (OCT4 (Homo sapiens)) | binding signal (fold enrichment) (SOX2 (Homo sapiens)) | binding signal (fold enrichment) [1] | binding signal (fold enrichment) (Sox2 (Mus musculus))
human NANOG promoter sox-oct region | 6 | 6 |  | 
mouse Nanog promoter oct-sox region (ChIP amplicon 2) |  |  | < 43 | < 37
